Results taken from publication PMC4938799, “LD Motif Recognition by Talin: Structure of the Talin-DLC1 Complex” (Structure(London, England:1993), 2016).
“Also recorded” adds a separate entry of the source.

Assays:
Format in all cases: cell-based
[1] = system: A549 human non-small cell lung cancer line; experiment: Growth in soft agar; settings: transfected A549, 3 weeks; mean over three experiments
Text: (§1) Figure 6 Talin R8 Mutations Disrupt the Interaction with DLC1 and Affect Its Biological Activity (A) Wild-type GST-talin fragments pull down more DLC1 than the 2E mutants. Extracts of HEK293T cells transfected with GFP-DLC1 and GST-talin constructs were subjected to pull-down assays with glutathione beads followed by immunoblotting with anti-GST and anti-DLC1 on the same membrane (top). The transfected GFP-DLC1 in each sample is shown by the anti-DLC1 blot (bottom) as a loading control. (B) Wild-type GST-talin fragments compete efficiently with endogenous talin to form a complex with DLC1. The supernatants collected after pull-down assay from (A) were reused for co-immunoprecipitation with an anti-talin antibody and blotted with anti-DLC1 (top). A small aliquot from each lane was blotted for endogenous talin as a loading control (bottom). (C) Co-expression of GST or GST-talin fragments (wild-type or 2E mutant) with GFP DLC1 in A549 cells. […] Transfected A549 cells were cultured in G418 for 3 weeks, and colonies counted and quantitated (top). […] Transfected A549 cells were grown for 3 weeks in soft agar, and colonies counted and quantitated (top). […] Lysates from migrated cells were quantitated (top), and representative microscopic images of the migrated cells are shown (bottom). […]

[2] = system: A549 human non-small cell lung cancer line; experiment: G418 (monolayer) colony growth assay; settings: transfected A549, G418 for 3 weeks; mean over three experiments
Text: as §1

[3] = system: A549 human non-small cell lung cancer line; experiment: Transwell cell migration assay; settings: transfected A549, transwell, 24 h; mean over three experiments
Text: as §1

[4] = system: GFP-DLC1; experiment: GST pull-down of GFP-DLC1 in HEK 293T cells; settings: HEK 293T cells co-transfected with GFP-DLC1 and GST-tagged talin constructs, immunoblot
Method: We reported previously that wild-type talin R8 is sufficient to form a complex with full-length DLC1 in cells ([Li et al., 2011]). To evaluate the effects of the single K1530E and K1544E and double K1530E/K1544E (2E) R8 mutants on the complex formation in vivo, we engineered GST-tagged R8 constructs into isogenic mammalian expression plasmids and co-transfected them with GFP-DLC1 into HEK 293T cells. Complex formation was determined by a GST pull-down assay.
The plasmids expressing GFP-DLC1 and GST fusion proteins with talin rod fragments encoding talin amino acids 1,288–1,646 and 1,453–1,580 (R8) were described previously ([Li et al., 2011]). The plasmid encoding 1,352–1,580 (R7R8) was engineered by PCR and subcloned into a eukaryotic expression vector, PEBG. HEK293T cells were transfected by Lipofectamine 2000, and DLC1-null lung adenocarcinoma cell lines A549 and H358 cells were transfected by Lipofectamine 3000 according to the manufacturer’s instructions (Invitrogen). Cells were co-transfected with plasmids expressing GFP-DLC1 or Paxillin-DDK and GST, GST-talin fragments, or vector at a ratio of 1:2.5. Cells were incubated at 37°C in a humidified 5% CO2 atmosphere. In vivo pull-down assay, co-immunoprecipitation, immunoblotting, G418 colony growth, soft agar growth, and cell migration assays were described previously ([Qian et al., 2009]). All experiments were conducted in triplicate.
Figure S2, related to Figures 4 and 5. […]
R8 talin fragment were co-transfected with GFP-DLC1 into 293T cells. Cell extracts were subjected
(1 picture or pasted object on this page, not shown here) […]
to pull-down assay with glutathione beads followed by immunoblotting with anti-GST and anti-DLC1 on the same membrane (top). The transfected GFP-DLC1 in each sample is shown by the anti-DLC1 blot (bottom) as a loading control. […]
HEK 293T cells were transfected by lipofectamine 2000 and DLC1-null lung adenocarcinoma cell lines A549 and H358 cells were transfected by lipofectamine 3000 according to manufacturer instructions (Invitrogen). Cells were co-transfected with plasmids expressing GFP-DLC1 or Paxillin-DDK and GST, GST-talin fragments, or vector at a ratio of 1:2.5. Cells were incubated at 37 °C in a humidified 5% CO2 atmosphere.
In vivo pull-down assay, co-immunoprecipitation, and immunoblotting - As described previously (Qian et al., 2009), two days after transfection, cell extracts were collected using golden lysis buffer (GLB: 20 mM Tris pH 7.9, 137 mM NaCl, 10% glycerol, 1% Triton, 5 mM EDTA, 1 mM EGTA, 1 mM Na3VO4, 10 mM NaF, 1 mM sodium pyrophosphate, 0.5 mM β-glycerophosphate, and protease inhibitor cocktail tablet (Roche)). The cleared supernatants were collected, and the amount of protein estimated by BCA kit (Pierce). […]

Molecule | growth in soft agar [1] | colony growth [2] | cell migration [3] | DLC1 binding in GST pull-down [4] | DLC1 binding in GST pull-down ([4]; listed as GST-talin R1530E) | DLC1 binding in GST pull-down ([4]; listed as talin R8 K1530E/K1544E double mutant)
GFP-DLC1: GFP fusion of full-length DLC1 expressed from plasmid (protein, left off: GFP, end not stated, kept, GFP fusion of full-length DLC1 expressed from plasmid) MCRKKPDTMILTQIEAKEACDWLRATGFPQYAQLYEDFLFPIDISLVKREHDFLDRDAIEALCRRLNTLNKCAVMKLEISPHRKRSDDSDEDEPCAISGKWTFQRDSKRWSRLEEFDVFSPKQDLVPGSPDDSHPKDGPSPGGTLMDLSERQEVSSVRSLSSTGSLPSHAPPSEDAATPRTNSVISVCSSSNLAGNDDSFGSLPSPKELSSFSFSMKGHEKTAKSKTRSLLKRMESLKLKSSHHSKHKAPSKLGLIISGPILQEGMDEEKLKQLNCVEISALNGNRINVPMVRKRSVSNSTQTSSSSSQSETSSAVSTPSPVTRTRSLSACNKRVGMYLEGFDPFNQSTFNNVVEQNFKNRESYPEDTVFYIPEDHKPGTFPKALTNGSFSPSGNNGSVNWRTGSFHGPGHISLRRENSSDSPKELKRRNSSSSMSSRLSIYDNVPGSILYSSSGDLADLENEDIFPELDDILYHVKGMQRIVNQWSEKFSDEGDSDSALDSVSPCPSSPKQIHLDVDNDRTTPSDLDSTGNSLNEPEEPSEIPERRDSGVGASLTRSNRHRLRWHSFQSSHRPSLNSVSLQINCQSVAQMNLLQKYSLLKLTALLEKYTPSNKHGFSWAVPKFMKRIKVPDYKDRSVFGVPLTVNVQRTGQPLPQSIQQAMRYLRNHCLDQVGLFRKSGVKSRIQALRQMNEGAIDCVNYEGQSAYDVADMLKQYFRDLPEPLMTNKLSETFLQIYQYVPKDQRLQAIKAAIMLLPDENREVLQTLLYFLSDVTAAVKENQMTPTNLAVCLAPSLFHLNTLKRENSSPRVMQRKQSLGKPDQKDLNENLAATQGLAHMIAECKKLFQVPEEMSRCRNSYTEQELKPLTLEALGHLGNDDSADYQHFLQDCVDGLFKEVKEKFKGWVSYSTSEQAELSYKKVSEGPPLRLWRSVIEVPAVPEEILKRLLKEQHLWDVDLLDSKVIEILDSQTEIYQYVQNSMAPHPARDYVVLRTWRTNLPKGACALLLTSVDHDRAPVVGVRVNVLLSRYLIEPCGPGKSKLTYMCRVDLRGHMPEWYTKSFGHLCAAEVVKIRDSFSNQNTETKDTKSR | inhibitory in all three assays | suppressed colony formation; also recorded: inhibitory in all three assays | suppressed cell migration; also recorded: inhibitory in all three assays | – | – | –
talin R8 K1530E: GST-tagged talin R8 single mutant K1530E (protein, left off: GST, end not stated, kept) NSQAGQQGLVEPTQFARANQAIQMACQSLGEPGCTQAQVLSAATIVAKHTSALCNSCRLASARTANPTAKRQFVQSAEEVANSTANLVKTIKALDGDFTEENRAQCRAATAPLLEAVDNLSAFASNPE | – | – | – | greater reduction in DLC1 binding than K1544E | binds DLC1 less well than the K1544E mutant | –
2E double mutant: GST-tagged talin R8 K1530E/K1544E double mutant (protein, left off: GST, end not stated, kept) NSQAGQQGLVEPTQFARANQAIQMACQSLGEPGCTQAQVLSAATIVAKHTSALCNSCRLASARTANPTAKRQFVQSAEEVANSTANLVKTIEALDGDFTEENRAQCRAATAPLLEAVDNLSAFASNPE | – | – | – | reduced binding to a greater extent than either single mutant | – | markedly reduced binding
